The nature of this data set: soluble fraction after stress (log2 fold change); higher = more stays soluble; pooled small domains, quantitative proteomics. The settings on record: stress: 50 degC. The procedure, abridged:
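Quantitative proteomics served as the high-throughput read-out for pooled custom libraries of small protein domains. Each was stressed at 50°C. Aggregation propensity is expressed as the base-two log fold change in soluble protein after stress. A higher value means a larger share of the protein remains in solution.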
Regarding “HMKYEGEDEYYASLVTEKIAAIGTVTEESEDAIKEARAAYDALTSAQKKLVTNYDVLDEAEK”, the “soluble fraction (log2)” value came to 0.371. As to “HMVKIIHYEVYANRGDGWKLVDQFSADQRQEAVNLAKEIETEDQVAVKIIREIFDVQDNTYQESVEYIG”, the “soluble fraction (log2)” value is -0.51. For “HMAEMLQDVLNMLSAKDREILVRYYYYYESVKQVAAEMQMSESAVKMRMSRARKKMQQELIDKG” the value was -3.59; for “HMKEIKRLVELSPGRYFIEGATNIRVFGINGSLLLDTKGETVDLSDLAKGVYLLKTDGVTYKVL”, -0.543; for “HMANYTVNAYNNGGTGGSVNMRSGPSTNDGIVVRVPHGATVTGTKSGTWSYMTYNTYTGYMMSVYLDEQS”, -0.157. Turning to “HMAIIQSNNIFKSQKEIVDEILVELDIPKDKWNFFHMLISSGYKDEFDTNRIYEIIQTNYNMMDR”, the “soluble fraction (log2)” value was -0.205. The figure for “HMSVISVETAKSKALAHAGLTASKVTFIENKLEWDDGRQVYDIEFYTSDYKEYDYTIDAVSGQVLEFDY” is -1.13; for “HMSPLQLGNYNTLRITRFTDHGAYLDGGDVGEILMPKTYVLPEMKPGDEVRVFVYLDQEERLVGTTET” it is -0.017.

For the sequence “HMQNNWFYEENGQRKGPVSENEMVQFIKSSVISHGTSVWKQGFPDWLKVENTDLRVHLDNSAP”, the “soluble fraction (log2)” value amounted to 0.136. For “HMHFEWNELRKAINDFLAEQNMNEDKQLGPYFIQRDIVVPETGTEIDSKKFSEVFKHKVIMYLFDDAAKQ” the value was -0.0513; for “HMNIDGLIGKKALVTADIDNVNSKGQIKINGLEWTARSVDDEPIPMGTEVEITAISGVKAIVRKG”, 0.168. As for “HMVKTANVAYSEFLKLVESDNISDVSIVGRTITGHLDDGTKFSTYTPPNDPSLIDKLTRKNVIIKSAPE”, the “soluble fraction (log2)” value was -0.00389.

With “HMRYWVKSETDFLIENRGKYSYQEFADMLGRSYAVVYDKMHQLKIDYTKEELEIFDEKHKAQMREKQQR”, the “soluble fraction (log2)” value is -1.52.

Regarding “HMIDLPEAFIQQLKEAVDVGDVTGLRELLGQLRRRYPQQSALSDEAERLLREFDFERLAQLFEGLD”, the “soluble fraction (log2)” value is -1.42.

Regarding “HMEVMYFIYQQEEPMRIDKFLVNEMEDFSRNSIQIYIKDNHVLVNDKVVKANYILKKGDAISITIPDPI”, the “soluble fraction (log2)” value is -0.404. Turning to “HMGTGADKNSWTIGDKVKHRKWGTGTVVKVTGAGEDAELDIAFKSEGIKRLLAAFAPIEKVK”, the “soluble fraction (log2)” value is -0.034.

As for “HMPANLTPDYFKAEQWYRSASTNEEKMLALEQMLAVMPKHKGTEHLQADLKRKLSQLKDASAQ”, the “soluble fraction (log2)” value was 0.148.

Regarding “HMWDEMKDQKLVEALLLLREDERKLIYQHVFEERTFDDISRINGLPPYKVKGIYYYAIRKIRKWMG”, the “soluble fraction (log2)” value was -1.51.

For the sequence “HMGSNRPLALGDVVRIEGSKTLGTILELNAKDAVVALGALKTTLPLSRIHHASSQESQRLKRQATQAPLR”, the “soluble fraction (log2)” value was found to be 0.123. For “HMELSPAELGERLKVARETANVTQDAGAKAAGIARTTLVAIEKGQRSARIDELQTLSRRYGVSVNSLLRR”, the “soluble fraction (log2)” value is -0.135.

With “HMGPTGGLTPHIAIADKRASEAIEFYKQAFGAVEQVRMPAEDGVRLMHAHLLVNGSSLMMHDDFPEYSGQ”, the “soluble fraction (log2)” value came out at 0.0526.

For “HMRSAKEYKAIREEIYRFIGAYITKHVYAPSNKEIAEAVGISGTTVHRHLIDMIDEGILETD”, the “soluble fraction (log2)” value is -2.56. The figure for “HMSLRVIEIFGTPQQMSARISLMDGSVTDVKVGQSIPGTSYKVASITGNGVWIQNGTAVSYTHL” is -1.3.

Take “HMQYYITKIANYDQVSPNLLVRTAEGQYMVKTNADILDTDVTKLTEEEIRKDWGYLFENGFSELV”: the “soluble fraction (log2)” value is -0.814. The figure for “HMEISNWLEEIGLSRYTETLSEFPLEDLVEFTDDDFKELGVLTPHRKKLLAAIATLNNDASSN” is -0.255.

As to “HMGSLVQTAMQAVTKHIHDNAMRVGDTLPGEGHFAETLGVSRAVMREAFGALAALKLIDVGNGRKPRVGR”, the “soluble fraction (log2)” value is -0.819.

As for “HMKQMNETQQKAFEIYLDSATFETDYKPISEEQLAAKLDALGLKGSSSSINRWKKDFNWAQALQNKVTLAM”, the “soluble fraction (log2)” value is -0.11. The figure for “HMNAELSTVQAAEVLNVSRPFLIKLLEDGAIPHRKVGKHRRVRMEDVMSYKAAIDTEREAVLDQLAA” is 0.123. Turning to “HMNPNPYIVLGVDKSMPFGEIKKVYQRKRREFHPDSLVAKGLPDELLQKAQDKFIAIQEAYKSIEKNQV”, the “soluble fraction (log2)” value was 0.317. The figure for “HMGEVQALIPGLVSKLFVVEGESVKIGQKLIILEAMKMENEIASPINGTIKKIYIKSGDKIDKGSIIMEIT” is -0.336. For “HMQNLISSDEAKNIALQHANLTDNQVTFIKVSKDYDDGIHIYEVEFHYNNREYNYDINAINGTILSYEQ” the value was -0.574; for “HMPLNAFDVAGYRLGYGGGYFDRTLAALSPRPLAVGVGFEINRLESIRPEAHDQRLDWIVTENGAFRPA”, -0.867. The figure for “HMAWIAVATKEDYSEYEWKELSPTTDWSTQTFDLGDLAGKTIYAVKMFFDHDTDVKDYKFNLGQLSITSN” is -0.266; for “HMFSPSDEDLELAHRQIRAFEEVEANGKSIAVVDGRIVESLHIVTARDTLEKAKAITALAEEM” it is 0.115. In the case of “HMKEETYHYTVRYVTDGGDILASYEGKATKDSVFFPEVKTFDGYTAVRGEEPMFHLVSDHAVFQIVYQKNG”, the “soluble fraction (log2)” value is -0.147. Turning to “HMSMQIILLDKVVNLGGLGDVVKVKDGYARNYLIPQGKAKRANTANLAEFEARRVELERLAAEQLAQAQA”, the “soluble fraction (log2)” value was found to be 0.0814. The figure for “HMKKVIKIEENVSLQKLAALMSLKVTDVLMRLLSMGMSGVNINSTIDADTAKILASEFGWTVED” is -0.743; for “HMNKIGTIVSINGPIVKTAGDVGFVMHEMVYVGKEKLVGEVIGLTTDFTIVEVYEETSGIKPGETIEGT” it is -1.5; for “HMKVLFLESIEGSASMGEIKDVANGYARNFLFPNGFAVPATPKNLKNVEELQAKELEIQTERDNWAA” it is -0.0454. As to “HMSLNNAHNTIFPRIIELMEMKQLENVLLIGGGIIPRKDIESLESSGVTKLYGPGTPVKETIEFITNWVK”, the “soluble fraction (log2)” value is -0.268. For “HMSTPVPIEGQPTENLNLRDQPSTSGKILTTIPKGKTVTILSEKNANGWYKVSYNGKTGYVSGSYFKVTK” the value was 0.317.

Regarding “HMLERKPVLVASRDLPALAVIGKDDLSVELLRTAPVGSYDRPEALLGKRVWVAVPAGSILSAATLEP”, the “soluble fraction (log2)” value was -0.103. The figure for “HMLRQVSDSNALETAVKKVLDANPEEVERYKSGNKKLISFFVGQTMKATKGAGNPKEINSILAKLL” is 0.0186. The figure for “HMPPDVIENIFKNDANKIIDLYNMAPRGQKETIVEMIKNKRLQGINVDANVLVKLGELTGIDFVN” is 0.0803. For “HMNNILNYTIAELMEILKIDDLETENVINSSNNLINKSINENNFPLAEFYEDVKNNLIEFIETFDS” the value was -0.632; for “HMDTDVFLMDLRGESRDYAEEVLINNNLEVKVIILPFSKRHYPGKVVEMRPSPFTKVKKGRIITLSVAGN”, -3.71. Take “HMQAGNAVEQYPTIGRLEEVTLGRSQPGAPIGERLSTLETVVFKRNFNDDSLFDRTERLKKTILGG”: the “soluble fraction (log2)” value is 0.0575. The figure for “HMAAEELTVDKILTAQSFGVTAEAILAKVNDPANTVATLTQADVDRLRAAGVPEGVVTALQARAPQ” is 0.0975; for “HMEEITLQEQINFIKDMLLNKEKFHLTDVITKKSKIYVVSLFLALLELIRLEEINFRQTQNFSDIIISRI” it is -0.138; for “HMTGKVSHGERKSVLVSLAGSMRARGMSIDAVRAGLYADNEKRFDPPLDERDIEDVLNSAKKWGDP” it is -0.322. For “HMPPLVLRGVVMGADGARLAILAQGEAGAALGIGETWKEYTLRSVTDQSATLEHRSGTITLTR” the value was -0.117; for “HMGKAMIDWEREQSILRILLRQKALTTEQAREVYQDGMREDLSALEMGVQRGYFTHEQLREATGGE”, 0.0179; for “HMTQEHDESVNLGKRLLDQALSRFGTSYRQLKKSEIKRILQSSGASTFKYILHQIGLGNRVPLAIANLIV”, -0.0734. For “HMDPERLDQLQNPDPAVRREAIIALGRSKDLAALPELAKVYKNDPVPELRELARQAGRYIQQENRP”, the “soluble fraction (log2)” value stood at 0.126. For “HMGNFNDMLKYLRVREKMSQAELADKLGVSKSTVGMYELGKREPDFETLEAIADLFNVDMNFLLGK” the value was -0.35; for “HMQRDERYVYHTVLAGETIYSLSRKFNVTMDELLESNPALRSGVLTTGSEIRVLKAQMAQNFD”, -0.376. The figure for “HMNGLPDLSRYTGVSIVDGLASVGSDSSFAYRAKIAETLGISDYKGSAGQNLEMIRKLGGKV” is -0.291; for “HMENKLIELTLSLDKSERLDKILTQELSHTRSVIQQWLKSGFVSVNGEIVKANYKAKDGDHVTIQIE” it is -0.198. The figure for “HMKNVADEVFEKMLNMIIEGDWKKGEMIPSENELREAFSVSRSTVRQAVQRLSALGIVRSRQGKGTYVEQV” is -1.04; for “HMGEGIRIDSTAVVQVGEKMYAYLGGDGFSKEFWTNLPASGELAVTLKFEPIPMDAESLDFYEMPA” it is 0.0315; for “HMKPSNLTSDERTQLLAQLKTAMGSDQYNQLRRQVGEEKLLEYVLDNVPGIQEEILGNRAVQENIDLH” it is 0.23.

Regarding “HMKLNEQSMQVIDRIVDRHRGRPGPVKLMLHDVQKELGYIPFEAMEKIAAASGVSADEVYGVVTFYTQFTT”, the “soluble fraction (log2)” value is -0.0825. The figure for “HMGVPTEQEIGKRILAWRKLRGMTLQQLADKAGVGLTTIHNLETGLWYAKMPTYLYIAEALGVSLDALIYG” is -1.42; for “HMESGLPLPRFVSLGADEVNLRTGPGLRYPVAWVFVRKALPVEIVAEFEQWRRVRDFEGAEGWVHKAML” it is -0.36.

Consider “HMGYLNDRQRLIKDFITENQPLKVSDLVKQFPNIGLSTLKKDLQYLRGEQVLTMIGKGKGSVYVLNKK”, for which the “soluble fraction (log2)” value is -0.446. For “HMQTEFVISSGEQPKRLDVFLLQREPYLSRAALQRMIAAGWVRVNNHLAKSSQRIKAGDVIVFD” the value was -1.41; for “HMPVTAQFDFSKVLAGRTLKDGEFSFVLKDKNGTVLQTKTNDASGKVAFDALIYKNNEVGEHKYTVEEVI”, 0.208; for “HMVVVPDVKGLKIEEAAEFFKNNNLHYNVIDSVFSKDVEPGAIVELSPLAGSKVKEGRIVFITVNALTS”, -0.651. For the sequence “HMKSARDDILSALDKAGEPLSMKDIAELSGRKLSTLRAQMTRLVAEGAVQATAAAHSPDRKYRK”, the “soluble fraction (log2)” value was -0.0859.

The values are drawn from the domain aggregation screens of Martell et al. (2025).
